Consider two substances from patent US20190322765A1.

The target of experiment [1] is IL-2R βγ heterodimer on human cells (NK92 cells, NK and T cells of PBMC) (human) (UniProt P14784). The experiment in a line: cell-based or functional assay.
The target in experiment [2] is murine IL-2R βγ heterodimer (β knob γ hole Fc fusion) (murine) (UniProt P16297). The experiment in a line: SPR, against the human IL-2R βγ heterodimer as reference. For orientation: In SPR one partner is held on a chip, and binding of the other changes the refractive index at the surface.
Experiment [3] concerns the target murine IL-2R α-subunit, recombinant monomeric (murine) (UniProt P01590). Put plainly: SPR, against the human IL-2R α-subunit as reference.

IL-2R βγ heterodimer on human cells (NK92 cells, NK and T cells of PBMC) (human), sequence (P14784 27-551, chain 1 of 2): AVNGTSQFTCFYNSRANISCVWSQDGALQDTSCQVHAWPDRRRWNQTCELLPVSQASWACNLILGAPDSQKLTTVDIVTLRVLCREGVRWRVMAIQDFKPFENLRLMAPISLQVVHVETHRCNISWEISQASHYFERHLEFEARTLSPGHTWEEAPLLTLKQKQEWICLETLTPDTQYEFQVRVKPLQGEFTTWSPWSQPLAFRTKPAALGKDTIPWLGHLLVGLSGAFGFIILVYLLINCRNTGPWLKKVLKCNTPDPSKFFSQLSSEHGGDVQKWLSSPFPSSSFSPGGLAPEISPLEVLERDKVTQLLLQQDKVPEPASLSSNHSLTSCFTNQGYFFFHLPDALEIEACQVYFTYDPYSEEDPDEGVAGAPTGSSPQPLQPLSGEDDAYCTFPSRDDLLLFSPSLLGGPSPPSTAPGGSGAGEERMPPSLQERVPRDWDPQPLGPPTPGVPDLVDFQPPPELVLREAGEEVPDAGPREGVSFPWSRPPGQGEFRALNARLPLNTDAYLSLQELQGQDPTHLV
IL-2R βγ heterodimer on human cells (NK92 cells, NK and T cells of PBMC) (human), sequence (P31785 23-369, chain 2 of 2, further chain): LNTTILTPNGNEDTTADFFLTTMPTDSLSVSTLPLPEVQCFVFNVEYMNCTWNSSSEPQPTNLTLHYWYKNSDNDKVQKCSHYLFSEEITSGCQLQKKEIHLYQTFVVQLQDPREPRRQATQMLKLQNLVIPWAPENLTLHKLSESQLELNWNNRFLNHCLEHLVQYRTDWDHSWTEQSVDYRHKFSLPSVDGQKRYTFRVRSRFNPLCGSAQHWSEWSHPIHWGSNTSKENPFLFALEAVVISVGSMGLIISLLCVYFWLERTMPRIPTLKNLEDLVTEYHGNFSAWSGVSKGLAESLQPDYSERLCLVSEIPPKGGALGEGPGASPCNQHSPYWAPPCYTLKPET
murine IL-2R βγ heterodimer (β knob γ hole Fc fusion) (murine), sequence (P16297 27-240, chain 1 of 2): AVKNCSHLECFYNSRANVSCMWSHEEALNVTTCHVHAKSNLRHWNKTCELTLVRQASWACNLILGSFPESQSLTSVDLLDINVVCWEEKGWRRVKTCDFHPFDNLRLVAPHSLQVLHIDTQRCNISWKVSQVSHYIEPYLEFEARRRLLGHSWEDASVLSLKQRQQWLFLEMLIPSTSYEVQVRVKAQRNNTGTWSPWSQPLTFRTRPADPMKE
murine IL-2R βγ heterodimer (β knob γ hole Fc fusion) (murine), sequence (P34902 23-263, chain 2 of 2, further chain): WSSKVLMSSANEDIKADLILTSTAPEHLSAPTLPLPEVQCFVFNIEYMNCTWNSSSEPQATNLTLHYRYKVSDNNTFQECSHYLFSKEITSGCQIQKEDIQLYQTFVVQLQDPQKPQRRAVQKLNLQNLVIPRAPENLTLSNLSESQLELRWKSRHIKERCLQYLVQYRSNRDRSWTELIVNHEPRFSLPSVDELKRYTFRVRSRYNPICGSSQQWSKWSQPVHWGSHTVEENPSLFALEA
murine IL-2R α-subunit, recombinant monomeric (murine), sequence (P01590 22-236 limits assumed): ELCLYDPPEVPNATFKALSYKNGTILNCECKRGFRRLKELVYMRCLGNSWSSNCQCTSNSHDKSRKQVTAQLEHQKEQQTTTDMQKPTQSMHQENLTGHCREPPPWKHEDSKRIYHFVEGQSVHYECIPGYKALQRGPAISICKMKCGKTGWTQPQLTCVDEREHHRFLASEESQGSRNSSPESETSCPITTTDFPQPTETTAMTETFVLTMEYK

As to “Proleukin (Novartis/Chiron), commercially available wild-type IL-2 (from UniProt P60568 22-153) (ligand)”, in experiment [1], the EC50 of IFN-γ release by NK92 cells is 4.1 nM; the EC50 of STAT5 phosphorylation, CD8+ T cells stood at 1.07 nM; the EC50 of STAT5 phosphorylation, NK cells amounted to 0.222 nM.

For the substance human IL-2, the fold lower affinity than for the human receptor in experiment [2] and in experiment [3] was 10 fold throughout.
